The values that follow come from patent publication WO2020239014A1 (dated 2020).

The target in assay [1] is T1, CGRPα (4013281-1000, Bachem) (human, UniProt P06881 83-119, not fully specified).
T1 construct: mature; ELISA: coated Bachem CGRPα; also called α-CGRP; human CGRP
T1 peptide (looked up): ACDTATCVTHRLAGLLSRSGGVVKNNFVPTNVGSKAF
In words: ELISA, coated CGRPα titrated (0-0.2 μg/mL), antibody fixed at 1 μg/mL.

In assay [2] the target is T1, CGRPα (4013281-1000, Bachem). In words: BLI (Octet RED 96), α-CGRP on streptavidin biosensors, antibody in solution, 1:1 model. (In general: BLI is a label-free optical method that tracks binding on a fibre tip over time.)
Assay [3] shares this target. In words: cell-based or functional assay.

Several values for one entry are separate records, joined by “and”; a condition that tells them apart may be missing. Identical values can stand only once.

B1: CGRPM5-BA51.23-IgG2 (antibody, V domains shown)
VH: QVQLVQSGAEVKKPGASVKVSCKASGYTFTRYTMHWIRQAPGQGLEWMGYIYPSSGYTIYNQKFQGRVTMTRDTSTSTVYMELSSLRSEDTAVYYCATEGHYAGNGNYEGYWGQGTTVTVSS
VL: DIVMTQSPSSLSASVGDRVTITCRASSSISSNYLHWYQQKPGKAPKLLIYRTSNLASGVPSRFSGSGSGTDFTLTISSLQPEDFATYYCQQGSSIPFTFGQGTKLEIK
notes: Humanized BA51, IgG2; also called CGRP-BA51.23; CGRP-BA51.23-IgG2
Broadly, the EC50 is the midpoint of the concentration-response curve. A high value points to a less potent agent. What is called Kd is the constant that tells how readily two partners part at equilibrium. A higher Kd goes with lower affinity. The koff is the rate constant with which the complex falls apart. Broadly, the kon is a measure of how fast the partners come together. Read a low kon as slow association. On to B1, for which, in assay [1], the concentration giving a half-maximal response (EC50) is 0.0135 µg/mL and 0.036 µg/mL. Besides, in assay [2], the Kd was < 1 pM, the off-rate constant (koff) was < 1e-07 s⁻¹ and the on-rate constant (kon) worked out at 122000 M⁻¹ s⁻¹.

B2: CGRPM5-BA51.23-IgG2-N105D (antibody, V domains shown)
VH: QVQLVQSGAEVKKPGASVKVSCKASGYTFTRYTMHWIRQAPGQGLEWMGYIYPSSGYTIYNQKFQGRVTMTRDTSTSTVYMELSSLRSEDTAVYYCATEGHYAGDGNYEGYWGQGTTVTVSS
VL: DIVMTQSPSSLSASVGDRVTITCRASSSISSNYLHWYQQKPGKAPKLLIYRTSNLASGVPSRFSGSGSGTDFTLTISSLQPEDFATYYCQQGSSIPFTFGQGTKLEIK
notes: IgG2; also called optimized BA51.23 antibody (N105D)
As to B2, the half-maximal effective concentration (EC50) in assay [1] was determined as 0.00844 µg/mL. The “EC50, cell-based cAMP activation assay (HTRF) with CGRP” value in assay [3] amounted to 32 µg/mL.

B3: CGRPM5-BA51.23-IgG2-N105L (antibody, V domains shown)
VH: QVQLVQSGAEVKKPGASVKVSCKASGYTFTRYTMHWIRQAPGQGLEWMGYIYPSSGYTIYNQKFQGRVTMTRDTSTSTVYMELSSLRSEDTAVYYCATEGHYAGLGNYEGYWGQGTTVTVSS
VL: DIVMTQSPSSLSASVGDRVTITCRASSSISSNYLHWYQQKPGKAPKLLIYRTSNLASGVPSRFSGSGSGTDFTLTISSLQPEDFATYYCQQGSSIPFTFGQGTKLEIK
notes: IgG2; also called optimized BA51.23 antibody (N105L)
With B3, in assay [1], a half-maximal response (EC50) required 0.0106 µg/mL. The “EC50, cell-based cAMP activation assay (HTRF) with CGRP” value in assay [3] amounted to 44.9 µg/mL.
